In paper PMC7982615, “Phase 1 study of telisotuzumab vedotin in Japanese patients with advanced solid tumors” (Cancer Medicine, 2021):

Assay: Safety and tolerability (TEAEs, DLTs, AESIs) in phase 1 dose-escalation study of teliso‐v
Format: in vivo, human
Experimental: This phase 1, open‐label, dose‐escalation clinical trial was conducted at two sites in Japan (NCT03311477). Enrollment began on November 6, 2017, and the trial was completed on March 4, 2019.
Escalation into the higher dose level proceeded if the first three evaluable patients in the lower dose level completed the first‐cycle (for at least 21 days) safety assessment without experiencing a dose‐limiting toxicity (DLT). DLT evaluations for dose escalation and determination of RP2D were carried out by investigators, study sponsor, and an independent safety monitor. […] No premedication was required. On the basis of confirmed availability of archival tumor tissue at enrollment, patients were retrospectively analyzed for c‐Met expression and MET amplification. c‐Met expression was determined by immunohistochemistry (IHC), and MET amplification was determined by fluorescence in situ hybridization or sequencing of plasma or tumor DNA.
Safety assessments included treatment‐emergent adverse events (TEAEs) graded according to the National Cancer Institute Common Terminology Criteria for Adverse Events version 4.03. TEAEs, vital signs, physical examinations, electrocardiograms, laboratory tests, and ECOG performance status were monitored during the study. Any grade ≥3 study drug‐related nonhematologic toxicity was documented as a DLT, except as follows: grade 3 nausea or vomiting lasting ≤48 hours that was successfully managed with antiemetics; grade 3 diarrhea successfully managed with antidiarrheal; grade 3 constipation lasting ≤7 days; grade 3 acute infusion reaction that resolved to grade ≤1 within 24 hours after the end of dosing; grade 3 and 4 laboratory tests including but not limited to lactate dehydrogenase, alkaline phosphatase, and gamma‐glutamyl transferase that were considered nonclinically significant by the investigator; liver function test abnormalities; grade 3 and 4 electrolyte imbalance unless associated with clinical symptomatology despite supplementation; and grade 3 hyperglycemia that was manageable without hospitalization. The following hematologic toxicities were documented as a DLT: any grade 4 hematologic toxicity (excluding febrile neutropenia or leukopenia lasting for ≤7 days, or lymphopenia); anemia requiring red blood cell transfusion; thrombocytopenia requiring platelet transfusion; grade 3 thrombocytopenia in the presence of grade ≥2 bleeding; and grade ≥3 febrile neutropenia. Toxicity management criteria are described in the Supplementary appendix.
All data were summarized and tabulated by dose cohort. Categoric data were summarized in terms of frequency counts and percentages. Continuous data were summarized using descriptive statistics, including number of observations, mean, standard deviation, median, minimum, and maximum. No formal statistical analysis was performed for efficacy variables, which were all exploratory in nature. ORR was defined as the proportion of patients with a confirmed partial response (PR) or complete response (CR). Duration of response was defined as time from a patient's initial objective response to the first date of disease progression (PD) or death. The overall disease control rate was defined as the proportion of patients with CR, PR, or stable disease (SD). […] PFS was estimated using the Kaplan–Meier method. Efficacy analyses are presented with two‐sided exact 95% binomial CI.

Substance: Teliso‐v: antibody‐drug conjugate: anti–c‐Met humanized monoclonal antibody ABT‐700 coupled to monomethyl auristatin E through a valine‐citrulline linker, drug:antibody ratio approximately three
- Alanine aminotransferase increased, TEAE regardless of relationship (2.4 mg/kg Q3W, n = 3): 0 n (%)
- Alanine aminotransferase increased, TEAE related to teliso‐v (2.4 mg/kg Q3W, n = 3): 0 n (%)
- Alopecia, TEAE regardless of relationship (2.4 mg/kg Q3W, n = 3): 0 n (%)
- Alopecia, TEAE related to teliso‐v (2.4 mg/kg Q3W, n = 3): 0 n (%)
- Anemia, TEAE regardless of relationship (2.4 mg/kg Q3W, n = 3): 1 (33) n (%)
- Aspartate aminotransferase increased, TEAE regardless of relationship (2.4 mg/kg Q3W, n = 3): 0 n (%)
- Aspartate aminotransferase increased, TEAE related to teliso‐v (2.4 mg/kg Q3W, n = 3): 0 n (%)
- Back pain, TEAE regardless of relationship (2.4 mg/kg Q3W, n = 3): 1 (33) n (%)
- Constipation, TEAE regardless of relationship (2.4 mg/kg Q3W, n = 3): 0 n (%)
- Decreased appetite, TEAE regardless of relationship (2.4 mg/kg Q3W, n = 3): 2 (67) n (%)
- Decreased appetite, TEAE related to teliso‐v (2.4 mg/kg Q3W, n = 3): 2 (67) n (%)
- Diarrhea, TEAE regardless of relationship (2.4 mg/kg Q3W, n = 3): 1 (33) n (%)
- Fatigue, TEAE regardless of relationship (2.4 mg/kg Q3W, n = 3): 1 (33) n (%)
- Fatigue, TEAE related to teliso‐v (2.4 mg/kg Q3W, n = 3): 1 (33) n (%)
- Hypoalbuminemia, TEAE regardless of relationship (2.4 mg/kg Q3W, n = 3): 0 n (%)
- Malaise, TEAE regardless of relationship (2.4 mg/kg Q3W, n = 3): 2 (67) n (%)
- Malaise, TEAE related to teliso‐v (2.4 mg/kg Q3W, n = 3): 2 (67) n (%)
- Nausea, TEAE regardless of relationship (2.4 mg/kg Q3W, n = 3): 1 (33) n (%)
- Nausea, TEAE related to teliso‐v (2.4 mg/kg Q3W, n = 3): 1 (33) n (%)
- Neutrophil count decreased, TEAE regardless of relationship (2.4 mg/kg Q3W, n = 3): 0 n (%)
- Neutrophil count decreased, TEAE related to teliso‐v (2.4 mg/kg Q3W, n = 3): 0 n (%)
- Peripheral neuropathy, TEAE regardless of relationship (2.4 mg/kg Q3W, n = 3): 2 (67) n (%)
- Peripheral neuropathy, TEAE related to teliso‐v (2.4 mg/kg Q3W, n = 3): 2 (67) n (%)
- Peripheral sensory neuropathy, TEAE regardless of relationship (2.4 mg/kg Q3W, n = 3): 1 (33) n (%)
- Peripheral sensory neuropathy, TEAE related to teliso‐v (2.4 mg/kg Q3W, n = 3): 1 (33) n (%)
- Punctate keratitis, TEAE regardless of relationship (2.4 mg/kg Q3W, n = 3): 1 (33) n (%)
- Punctate keratitis, TEAE related to teliso‐v (2.4 mg/kg Q3W, n = 3): 1 (33) n (%)
- Weight decreased, TEAE regardless of relationship (2.4 mg/kg Q3W, n = 3): 1 (33) n (%)
- Weight decreased, TEAE related to teliso‐v (2.4 mg/kg Q3W, n = 3): 1 (33) n (%)
- White blood cell count decreased, TEAE regardless of relationship (2.4 mg/kg Q3W, n = 3): 0 n (%)
- White blood cell count decreased, TEAE related to teliso‐v (2.4 mg/kg Q3W, n = 3): 0 n (%)
- Tolerability (2.7 mg/kg Q3 W, Japanese patients): well‐tolerated
- Alanine aminotransferase increased, TEAE regardless of relationship (2.7 mg/kg Q3W, n = 6): 2 (33) n (%)
- Alanine aminotransferase increased, TEAE related to teliso‐v (2.7 mg/kg Q3W, n = 6): 2 (33) n (%)
- Alopecia, TEAE regardless of relationship (2.7 mg/kg Q3W, n = 6): 2 (33) n (%)
- Alopecia, TEAE related to teliso‐v (2.7 mg/kg Q3W, n = 6): 2 (33) n (%)
- Anemia, TEAE regardless of relationship (2.7 mg/kg Q3W, n = 6): 1 (17) n (%)
- Aspartate aminotransferase increased, TEAE regardless of relationship (2.7 mg/kg Q3W, n = 6): 2 (33) n (%)
- Aspartate aminotransferase increased, TEAE related to teliso‐v (2.7 mg/kg Q3W, n = 6): 2 (33) n (%)
- Back pain, TEAE regardless of relationship (2.7 mg/kg Q3W, n = 6): 1 (17) n (%)
- Constipation, TEAE regardless of relationship (2.7 mg/kg Q3W, n = 6): 2 (33) n (%)
- Decreased appetite, TEAE regardless of relationship (2.7 mg/kg Q3W, n = 6): 1 (17) n (%)
- Decreased appetite, TEAE related to teliso‐v (2.7 mg/kg Q3W, n = 6): 1 (17) n (%)
- Diarrhea, TEAE regardless of relationship (2.7 mg/kg Q3W, n = 6): 1 (17) n (%)
- Fatigue, TEAE regardless of relationship (2.7 mg/kg Q3W, n = 6): 1 (17) n (%)
- Fatigue, TEAE related to teliso‐v (2.7 mg/kg Q3W, n = 6): 1 (17) n (%)
- Hypoalbuminemia, TEAE regardless of relationship (2.7 mg/kg Q3W, n = 6): 2 (33) n (%)
- Malaise, TEAE regardless of relationship (2.7 mg/kg Q3W, n = 6): 0 n (%)
- Malaise, TEAE related to teliso‐v (2.7 mg/kg Q3W, n = 6): 0 n (%)
- Nausea, TEAE regardless of relationship (2.7 mg/kg Q3W, n = 6): 2 (33) n (%)
- Nausea, TEAE related to teliso‐v (2.7 mg/kg Q3W, n = 6): 2 (33) n (%)
- Neutrophil count decreased, TEAE regardless of relationship (2.7 mg/kg Q3W, n = 6): 2 (33) n (%)
- Neutrophil count decreased, TEAE related to teliso‐v (2.7 mg/kg Q3W, n = 6): 2 (33) n (%)
- Peripheral neuropathy, TEAE regardless of relationship (2.7 mg/kg Q3W, n = 6): 0 n (%)
- Peripheral neuropathy, TEAE related to teliso‐v (2.7 mg/kg Q3W, n = 6): 0 n (%)
- Peripheral sensory neuropathy, TEAE regardless of relationship (2.7 mg/kg Q3W, n = 6): 3 (50) n (%)
- Peripheral sensory neuropathy, TEAE related to teliso‐v (2.7 mg/kg Q3W, n = 6): 3 (50) n (%)
- Punctate keratitis, TEAE regardless of relationship (2.7 mg/kg Q3W, n = 6): 1 (17) n (%)
- Punctate keratitis, TEAE related to teliso‐v (2.7 mg/kg Q3W, n = 6): 1 (17) n (%)
- Weight decreased, TEAE regardless of relationship (2.7 mg/kg Q3W, n = 6): 2 (33) n (%)
- Weight decreased, TEAE related to teliso‐v (2.7 mg/kg Q3W, n = 6): 1 (17) n (%)
- White blood cell count decreased, TEAE regardless of relationship (2.7 mg/kg Q3W, n = 6): 3 (50) n (%)
- White blood cell count decreased, TEAE related to teliso‐v (2.7 mg/kg Q3W, n = 6): 3 (50) n (%)
